Test results reported in article PMC8206089, “Split NanoLuc technology allows quantitation of interactions between PII protein and its receptors with unprecedented sensitivity and reveals transient interactions” (Scientific Reports, 2021).

What was measured:
[1] = target: PII-LgBiT (wild-type PII protein from Synechocystis sp. PCC6803 fused to Large BiT) (Synechocystis sp. PCC6803) (UniProt Q55247); assay: split reporter (BiFC, NanoBiT); in solution; PipX-SmBiT (0-800 nM) titrated to 10 pM PII-LgBiT trimer; 2 mM ADP; 50 mM Tris/HCl pH 7.6, 100 mM KCl, 10% glycerol, 2 mM MgCl2, 0.1% BSA; 15 min at 30 °C; KD from half-maximal luminescence
Sequence of PII-LgBiT (wild-type PII protein from Synechocystis sp. PCC6803 fused to Large BiT) (Synechocystis sp. PCC6803) (Q55247 whole entry, the tested form may be a part): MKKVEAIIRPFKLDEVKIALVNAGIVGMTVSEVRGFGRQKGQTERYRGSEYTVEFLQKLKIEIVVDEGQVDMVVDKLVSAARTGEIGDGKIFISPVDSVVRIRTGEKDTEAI

[2] = target: PII-LgBiT (wild-type PII protein from Synechocystis sp. PCC6803 fused to Large BiT) (Synechocystis sp. PCC6803) (UniProt Q55247); assay: split reporter (BiFC, NanoBiT); time course; 10 pM PII-LgBiT and 10 nM PipX-SmBiT; complex formed with 2 mM ATP, then 2 mM 2-OG added
[3] = target: PII-LgBiT (wild-type PII protein from Synechocystis sp. PCC6803 fused to Large BiT) (Synechocystis sp. PCC6803) (UniProt Q55247); assay: split reporter (BiFC, NanoBiT); time course; 10 pM PII-LgBiT and 10 nM PipX-SmBiT; complex formed with 1 mM ATP + 1 mM ADP, then 2 mM 2-OG added
[4] = target: PII-LgBiT (wild-type PII protein from Synechocystis sp. PCC6803 fused to Large BiT) (Synechocystis sp. PCC6803) (UniProt Q55247); assay: split reporter (BiFC, NanoBiT); in solution; PipX-SmBiT (0-800 nM) titrated to 10 pM PII-LgBiT trimer; 2 mM ATP; 50 mM Tris/HCl pH 7.6, 100 mM KCl, 10% glycerol, 2 mM MgCl2, 0.1% BSA; 15 min at 30 °C; KD from half-maximal luminescence
[5] = target: PII-LgBiT (wild-type PII protein from Synechocystis sp. PCC6803 fused to Large BiT) (Synechocystis sp. PCC6803) (UniProt Q55247); assay: split reporter (BiFC, NanoBiT); time course; 10 pM PII-LgBiT and 10 nM PipX-SmBiT; ATP/ADP mixtures at a total ADP + ATP concentration of 2 mM
[6] = target: PII-LgBiT (wild-type PII protein from Synechocystis sp. PCC6803 fused to Large BiT) (Synechocystis sp. PCC6803) (UniProt Q55247); assay: split reporter (BiFC, NanoBiT); competition; 10 pM PII-LgBiT trimer with PipX (180, 900, 1800 nM monomer) 15 min at 30 °C, then 180 nM NAGK-SmBiT monomer for 30 min; 2 mM ATP
[7] = target: NAGK (Synechococcus elongatus) (UniProt Q6V1L5); assay: ultrafiltration; conditions: cited from earlier work
Sequence of NAGK (Synechococcus elongatus) (Q6V1L5 whole entry): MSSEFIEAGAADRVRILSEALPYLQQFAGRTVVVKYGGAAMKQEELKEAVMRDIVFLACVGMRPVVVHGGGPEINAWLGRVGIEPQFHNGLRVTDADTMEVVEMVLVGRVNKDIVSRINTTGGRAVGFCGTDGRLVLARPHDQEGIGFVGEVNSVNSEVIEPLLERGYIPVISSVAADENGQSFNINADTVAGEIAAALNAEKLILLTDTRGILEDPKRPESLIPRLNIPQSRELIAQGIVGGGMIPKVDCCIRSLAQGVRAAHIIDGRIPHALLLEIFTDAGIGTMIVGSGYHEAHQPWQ

Sequence of PII (P0A3F4 whole entry): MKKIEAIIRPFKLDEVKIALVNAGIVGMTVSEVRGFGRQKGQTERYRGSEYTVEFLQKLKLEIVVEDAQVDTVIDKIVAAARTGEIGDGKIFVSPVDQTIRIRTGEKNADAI

Substance: PipX-SmBiT (PII-interacting protein X fused to Small BiT) (natural protein)
- Kd [1]: 5.7 nM
- time until half of the complex was dissociated after adding 2 mM 2-OG (2 mM ATP) [2]: 45 s
- time until half of the complexes was dissociated after adding 2 mM 2-OG (1 mM ATP + 1 mM ADP) [3]: 340 s
- Kd [4]: 52 nM
- luminescence signal with 0.5 mM ADP + 1.5 mM ATP (percent) [5]: 80%

Substance: PipX (without SmBiT, competitor) (natural protein)
- luminescence signal of PII-LgBiT with NAGK-SmBiT left at PipX 1:1 to NAGK (2 mM ATP) [6]: 50%

Substance: PII (from UniProt P0A3F4)
- Kd [7]: 73 nM
